Results on 1 molecule are retold here after patent US6458355 (Genentech, dated 2002).

This assay addresses T1, recombinant human IL-8, (ser-IL-8)72 (human, UniProt P10145 28-99).
T1 construct: mature; also called human wild type IL-8; wt IL-8
T1 sequence (looked up): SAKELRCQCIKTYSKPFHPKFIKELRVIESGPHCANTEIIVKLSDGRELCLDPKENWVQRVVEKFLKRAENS
The assay can be described thus: competition of 125I-IL-8 binding to human neutrophils.

B1: humanized 6G425 F(ab)-1 (Fab, V domains shown)
VH: EVQLVESGGGLVQPGGSLRLSCAASGYSFSSHYMHWVRQAPGKGLEWVGYIDPSNGETTYNQKFKGRFTISRDNSKNTLYLQMNSLRAEDTAVYYCARGDYRYNGDWFFDVWGQGT
VL: DIQMTQSPSSLSASVGDRVTITCRSSQSLVHGIGNTYLHWYQQKPGKAPKLLIYKVSNRFSGVPSRFSGSGSGTDFTLTISSLQPEDFATYYCSQSTHVPLTFGQGTKVEIKR
notes: Fab with human kappa subgroup I light and human IgG1 subgroup III heavy chain (pEMX1); CDR swap; also called version 1; V1
As for B1, the “fold reduction in binding affinity (against the chimeric F(ab))” value amounted to 5.5 fold.
